In publication PMC7117912 (2020):
Ends that are not written are not given here.

Biological target: H2-D^b (mouse MHC I heavy chain ectodomain) refolded with human β2-microglobulin (mouse | human)
Experiment: FP

B1: ASNC*NMETM (fluorescently labeled high-affinity peptide for H2-D^b) (peptide)
peptide: ASNC(TAMRA)NMETM
  koff: 0.00035 s⁻¹
